# Molecular target: huCD28 (human, UniProt P10747 19-152, limits assumed)
# Test: SPR, OAA format
Fold-change from WT [fold],Kd [nM],koff [s⁻¹],kon [M⁻¹ s⁻¹],Binder
1,87.9,0.00319,36300,"v34891 (parental huTN228 OAA) (antibody, V domains shown, one-arm Fab antibody (OAA) format; also called huTN228 parental one-arm Fab antibody) VH: QVQLQESGPGLVKPSETLSLTCAVSGFSLTSYGVHWIRQPPGKGLEWLGVIWPGGGTNFNSALMSRLTISEDTSKNQVSLKLSSVTAADTAVYYCARDRAYGNYLYAMDYWGQGTLVTVSS VL: DIQMTQSPSSLSASVGDRVTITCRASESVEYYVTSLMQWYQQKPGKAPKLLIYAASNVDSGVPSRFSGSGSGTDFTLTISSLQPEDIATYYCQQSRKVPFTFGGGTKVEIK"
4.69,412,0.037,90900,"v37851 (antibody, V domains shown, OAA format as v34891; also called huTN228 N1066A (VH) OAA) VH: QVQLQESGPGLVKPSETLSLTCAVSGFSLTSYGVHWIRQPPGKGLEWLGVIWPGGGTAFNSALMSRLTISEDTSKNQVSLKLSSVTAADTAVYYCARDRAYGNYLYAMDYWGQGTLVTVSS VL: DIQMTQSPSSLSASVGDRVTITCRASESVEYYVTSLMQWYQQKPGKAPKLLIYAASNVDSGVPSRFSGSGSGTDFTLTISSLQPEDIATYYCQQSRKVPFTFGGGTKVEIK"
4.9,431,0.0277,67700,"v37869 (antibody, V domains shown, OAA format as v34891; also called huTN228 V1035A (VL) OAA) VH: QVQLQESGPGLVKPSETLSLTCAVSGFSLTSYGVHWIRQPPGKGLEWLGVIWPGGGTNFNSALMSRLTISEDTSKNQVSLKLSSVTAADTAVYYCARDRAYGNYLYAMDYWGQGTLVTVSS VL: DIQMTQSPSSLSASVGDRVTITCRASESVEYYATSLMQWYQQKPGKAPKLLIYAASNVDSGVPSRFSGSGSGTDFTLTISSLQPEDIATYYCQQSRKVPFTFGGGTKVEIK"
2.81,247,0.0139,56600,"v37845 (antibody, V domains shown, OAA format; also called huTN228 Y1037A (VH) OAA) VH: QVQLQESGPGLVKPSETLSLTCAVSGFSLTSAGVHWIRQPPGKGLEWLGVIWPGGGTNFNSALMSRLTISEDTSKNQVSLKLSSVTAADTAVYYCARDRAYGNYLYAMDYWGQGTLVTVSS VL: DIQMTQSPSSLSASVGDRVTITCRASESVEYYVTSLMQWYQQKPGKAPKLLIYAASNVDSGVPSRFSGSGSGTDFTLTISSLQPEDIATYYCQQSRKVPFTFGGGTKVEIK"
0.73,64,0.00301,47100,"v37843 (antibody, V domains shown, OAA format as v34891; also called huTN228 T1035A (VH) OAA) VH: QVQLQESGPGLVKPSETLSLTCAVSGFSLASYGVHWIRQPPGKGLEWLGVIWPGGGTNFNSALMSRLTISEDTSKNQVSLKLSSVTAADTAVYYCARDRAYGNYLYAMDYWGQGTLVTVSS VL: DIQMTQSPSSLSASVGDRVTITCRASESVEYYVTSLMQWYQQKPGKAPKLLIYAASNVDSGVPSRFSGSGSGTDFTLTISSLQPEDIATYYCQQSRKVPFTFGGGTKVEIK"
0.84,73.7,0.00342,46400,"v37855 (antibody, V domains shown, OAA format as v34891; also called huTN228 G1111A (VH) OAA) VH: QVQLQESGPGLVKPSETLSLTCAVSGFSLTSYGVHWIRQPPGKGLEWLGVIWPGGGTNFNSALMSRLTISEDTSKNQVSLKLSSVTAADTAVYYCARDRAYANYLYAMDYWGQGTLVTVSS VL: DIQMTQSPSSLSASVGDRVTITCRASESVEYYVTSLMQWYQQKPGKAPKLLIYAASNVDSGVPSRFSGSGSGTDFTLTISSLQPEDIATYYCQQSRKVPFTFGGGTKVEIK"
0.72,63.4,0.00322,51100,"v37841 (antibody, V domains shown, OAA format as v34891; also called huTN228 S1029A (VH) OAA) VH: QVQLQESGPGLVKPSETLSLTCAVSGFALTSYGVHWIRQPPGKGLEWLGVIWPGGGTNFNSALMSRLTISEDTSKNQVSLKLSSVTAADTAVYYCARDRAYGNYLYAMDYWGQGTLVTVSS VL: DIQMTQSPSSLSASVGDRVTITCRASESVEYYVTSLMQWYQQKPGKAPKLLIYAASNVDSGVPSRFSGSGSGTDFTLTISSLQPEDIATYYCQQSRKVPFTFGGGTKVEIK"
0.7,61.6,0.00313,50800,"v37844 (antibody, V domains shown, OAA format as v34891; also called huTN228 S1036A (VH) OAA) VH: QVQLQESGPGLVKPSETLSLTCAVSGFSLTAYGVHWIRQPPGKGLEWLGVIWPGGGTNFNSALMSRLTISEDTSKNQVSLKLSSVTAADTAVYYCARDRAYGNYLYAMDYWGQGTLVTVSS VL: DIQMTQSPSSLSASVGDRVTITCRASESVEYYVTSLMQWYQQKPGKAPKLLIYAASNVDSGVPSRFSGSGSGTDFTLTISSLQPEDIATYYCQQSRKVPFTFGGGTKVEIK"
5.37,472,0.0601,126000,"v37868 (antibody, V domains shown, OAA format as v34891; also called huTN228 Y1034A (VL) OAA) VH: QVQLQESGPGLVKPSETLSLTCAVSGFSLTSYGVHWIRQPPGKGLEWLGVIWPGGGTNFNSALMSRLTISEDTSKNQVSLKLSSVTAADTAVYYCARDRAYGNYLYAMDYWGQGTLVTVSS VL: DIQMTQSPSSLSASVGDRVTITCRASESVEYAVTSLMQWYQQKPGKAPKLLIYAASNVDSGVPSRFSGSGSGTDFTLTISSLQPEDIATYYCQQSRKVPFTFGGGTKVEIK"
1.39,122,0.00626,51100,"v37847 (antibody, V domains shown, OAA format; also called huTN228 P1058A (VH) OAA) VH: QVQLQESGPGLVKPSETLSLTCAVSGFSLTSYGVHWIRQPPGKGLEWLGVIWAGGGTNFNSALMSRLTISEDTSKNQVSLKLSSVTAADTAVYYCARDRAYGNYLYAMDYWGQGTLVTVSS VL: DIQMTQSPSSLSASVGDRVTITCRASESVEYYVTSLMQWYQQKPGKAPKLLIYAASNVDSGVPSRFSGSGSGTDFTLTISSLQPEDIATYYCQQSRKVPFTFGGGTKVEIK"
0.9,79,0.0034,43200,"v37854 (antibody, V domains shown, OAA format as v34891; also called huTN228 Y1110A (VH) OAA) VH: QVQLQESGPGLVKPSETLSLTCAVSGFSLTSYGVHWIRQPPGKGLEWLGVIWPGGGTNFNSALMSRLTISEDTSKNQVSLKLSSVTAADTAVYYCARDRAAGNYLYAMDYWGQGTLVTVSS VL: DIQMTQSPSSLSASVGDRVTITCRASESVEYYVTSLMQWYQQKPGKAPKLLIYAASNVDSGVPSRFSGSGSGTDFTLTISSLQPEDIATYYCQQSRKVPFTFGGGTKVEIK"
6.16,542,0.0254,47100,"v37856 (antibody, V domains shown, OAA format; also called huTN228 N1111AA (VH) OAA) VH: QVQLQESGPGLVKPSETLSLTCAVSGFSLTSYGVHWIRQPPGKGLEWLGVIWPGGGTNFNSALMSRLTISEDTSKNQVSLKLSSVTAADTAVYYCARDRAYGAYLYAMDYWGQGTLVTVSS VL: DIQMTQSPSSLSASVGDRVTITCRASESVEYYVTSLMQWYQQKPGKAPKLLIYAASNVDSGVPSRFSGSGSGTDFTLTISSLQPEDIATYYCQQSRKVPFTFGGGTKVEIK"
3.91,344,0.0221,64700,"v37858 (antibody, V domains shown, OAA format as v34891; also called huTN228 L1112AA (VH) OAA) VH: QVQLQESGPGLVKPSETLSLTCAVSGFSLTSYGVHWIRQPPGKGLEWLGVIWPGGGTNFNSALMSRLTISEDTSKNQVSLKLSSVTAADTAVYYCARDRAYGNYAYAMDYWGQGTLVTVSS VL: DIQMTQSPSSLSASVGDRVTITCRASESVEYYVTSLMQWYQQKPGKAPKLLIYAASNVDSGVPSRFSGSGSGTDFTLTISSLQPEDIATYYCQQSRKVPFTFGGGTKVEIK"
